Where “and” joins values, the source holds several entries; their conditions need not be identical. Equal entries are not always repeated. Where two headings read alike, the source gives them in different places.

The term Kd denotes a measure of binding affinity in units of concentration.

In one series the target is IL-15Rα (Homo sapiens, UniProt Q13261). The experiment in a line: Receptor affinity for IL-15Rα by surface plasmon resonance (BIAcore). It is filed as binding. As to conditions: for ka: IL-15Rα:Fc captured by anti-Fc. On the procedure:
The affinities of IL-15 and exemplary long acting rIL-15 receptor agonists were measured using Surface Plasmon Resonance (“SPR”) using a BIAcore™ SPR system. Briefly, the surface of a Biacore CM5 sensor chip was activated using a 1:1 mixture of NHS: EDC to generate active NHS esters. Goat anti-human Fc antibody was covalently attached to the surface by injecting it for five minutes in 10 mM sodium acetate (pH 4). There were approximately 8000 RU of antibodies bound to the surface. Any remaining NHS ester was then quenched with ethanolamine.
At the initiation of each injection cycle, IL-15-Rα-Fc was captured on a sensor chip channel by a five-minute injection step in PBSP. Typically, 150-200 RU of receptors were bound on the surface.
Long acting rIL-15 receptor agonist test articles were diluted to 10 µM in PBS (containing 0.05% Tween 20 and 0.1 mg/ml BSA). A series of 3-fold dilutions were made and injected onto a sensor chip which was coated with IL-15Rα. The affinities were measured by determining the ka and kd rates separately, and the ratio between kd and ka was used to calculate the Kd values.
The affinities of exemplary long-acting IL-15 receptor agonists (test articles) for the IL-15 α receptor were measured and compared to IL-15. Affinity was measured by BIAcore using IL-15Rα:Fc captured by immobilized anti-Fc.
The test articles were diluted to 10 μM in PBS (containing 0.05% Tween 20 and 0.1 mg/ml BSA). A series of 3-fold dilutions were made and injected onto a sensor chip which was coated with IL-15Rα. The affinities were measured by determining the ka and kd rates separately, and the ratio between ka and kd was used to calculate the […] values.
Background: SPR reads the build-up and loss of mass on a sensor chip optically.

Another series has as its system CT-26 cells. Put plainly: CT-26 lung metastasis model. The conditions noted are these: for lung nodule inhibition: Example 19, one week apart.
Series [1] is described as follows: Single dose PK study in rats (plasma concentration). It is filed as in vivo. As to conditions: Sprague Dawley rats, single i.v. 10, 75 and 150 μg/kg. The procedure:
Following administration, blood was collected at days 1-7 post administration (with multiple samples collected over the first 24 hours following administration). […]

The subject of the next series is YAC-1 cells. The series is classed as cell-based. The procedure: NK cell-mediated cytotoxicity against target tumor cells was evaluated in vitro using a flow cytometry-based assay. NK cells were isolated from spleens of Balb/c mice using negative-selection magnetic cell isolation (Mouse NK cell enrichment kit, Stemcell Technologies) and used as effector cells. For in vitro studies, isolated NK cells were stimulated with Conjugate 1 at concentrations of 3000, 1000, 300, 30, 3, or 0 (unstimulated) ng/ml overnight in a humidified incubator at 37° C., 5% CO2 prior to use in the cytotoxicity assay. For in vivo studies, mice were dosed with 0.3 mg/kg Conjugate 1, and splenic NK cells were isolated 24, 48, and 72 h post-dose and used directly in the cytotoxicity assay.
YAC-1 T-cells labeled with PKH26 were used as target cells. To monitor NK cell cytotoxicity, NK and YAC-1 cells were co-cultured at various effector: target ratios (50:1, 25:1, and 12.5:1) for 4 hours at 37° C., 5% CO2, then stained with 7-AAD for 10 min to label dead cells. Cells were immediately analyzed using flow cytometry. Lysed target cells were identified as PKH26+7-AAD+.
Balb/c mice (n=2/group) were treated with Conjugate 1 (0.006, 0.03 or 0.3 mg/kg), IL-15 (1 mg/kg) or vehicle control. After treatment, spleens were isolated 24, 72, and 96 hours for NK cell isolation. […]

IL-15Rα, sequence (Q13261 31-205 limits assumed): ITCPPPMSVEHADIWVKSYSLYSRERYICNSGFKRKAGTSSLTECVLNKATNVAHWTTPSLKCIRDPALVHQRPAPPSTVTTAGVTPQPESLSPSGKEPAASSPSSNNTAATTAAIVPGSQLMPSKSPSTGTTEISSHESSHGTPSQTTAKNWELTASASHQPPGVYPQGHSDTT
Procedure for CT-26 cells: At day 0, 6-8 week-old female Balb/c mice were inoculated with 1×10^5 mouse CT-26 cells by tail vein injection. On day 1, post 24 h of CT-26 cells being administered, mice were divided into ten groups. […] Each group was assigned one intervention as follows: vehicle, phosphate buffered saline (Group A); native IL-15 alone (Group B); Conjugate 2 at a dose of 0.03 mg/kg (Group C); Conjugate 2 at a dose of 0.1 mg/kg (Group D); Conjugate 2 at a dose of 0.3 mg/kg (Group E); Conjugate 2 at a dose of 1.0 mg/kg (Group F); Conjugate 2 at a dose of 3.0 mg/kg (Group G); for Conjugate 1: vehicle, phosphate buffered saline (Group H); Conjugate 1 at a dose of 0.03 mg/kg (Group I) and Conjugate 1 at a dose of 0.3 mg/kg (Group J). Animals were dosed at days 1, 5, and 10.
Post 13 days from the date of CT-26 tumor cells administration, mice were anesthetized, and blood and spleen cells were collected for further analysis of immunophenotype markers, while lungs were fixed for 24-48 h in Bouins solution containing picric acid and formaldehyde.
The number of lung tumor nodules were counted under a dissection per each lung and mean of lung nodules for each group was determined. The statistical significance was also obtained between the vehicle group vs intervention groups using unpaired students t test.
Balb/c mice received tail vein injection of 1×10^5 CT-26 colorectal carcinoma cells. The following day, mice (n=9/group) were treated weekly, twice, with Conjugate 1 (0.03 or 0.3 mg/kg) or vehicle control. Five days after the second injection, mice were humanely sacrificed and lung nodules were counted.
CT-26 mice (n=7-11/group) were injected with anti-asialo GM1 to deplete NK cells or two different controls (lgG or PBS), then injected with 1×10^5 CT-26 tumor cells. Mice were then treated with Conjugate 2 at 0.3 mg/kg dosed on days 1, 5 and 10 post tumor cell injection or vehicle control. Mice were sacrificed and lung nodules were counted three days after the last day of treatment.

Take “IL-15: recombinant human IL-15 from E. coli, SEQ ID NO: 1, non-glycosylated, 12.9 kDa; unconjugated comparator”: in the series with IL-15Rα (Table 2A), the ka worked out at 578000 M⁻¹ s⁻¹ and the “dissociation rate constant (kd)” value turned out to be 0.000149 s⁻¹. For the same substance, the Kd in the series with IL-15Rα (Table 2A, read-out: KD) turned out to be 0.258 nM. For the same substance, the Kd with IL-15Rα (Table 2B, read-out: IL-15Rα KD) was 0.258 nM.
For mono-mPEG-SBA40K-IL-15 [Conjugate 1], the survival result in the series with CT-26 cells (0.3 mg/kg, followed 32 days post tumor cell injection, vs vehicle) is “increased survival significantly”. The “reduction in lung metastases in comparison to vehicle” value in the series on CT-26 cells (Example 13, i.v. days 1, 5, 10, dose not stated) worked out at 85%. For the same substance, the values for the lung nodule inhibition with CT-26 cells (0.03 mg/kg dosed twice) and in the series on CT-26 cells (0.3 mg/kg dosed twice) were 40% and 80%, respectively. The half-life result in series [1] is recorded as “approximately 18 hours”. For the same substance, in the series on YAC-1 cells, the “NK cytotoxicity (percent specific lysis of YAC-1 cells) after treatment of mice” value is “elevation of NK cytotoxicity superior in magnitude and duration”. The ka with IL-15Rα (Table 2A) was 492000 M⁻¹ s⁻¹. For the same substance, in the series with IL-15Rα (Table 2A), the “dissociation rate constant (kd)” value was found to be 0.000103 s⁻¹. Also, the Kd with IL-15Rα (Table 2A, read-out: KD) was 0.209 nM; with IL-15Rα (Table 2B, read-out: IL-15Rα KD), 0.201 nM and 0.209 nM. The “alpha receptor affinity of IL-15 retained” value in the series with IL-15Rα (compared to IL-15) is reported as “about 80%”.

(Values after patent US20240424115A1, “LONG-ACTING INTERLEUKIN-15 RECEPTOR AGONISTS AND RELATED IMMUNOTHERAPEUTIC COMPOSITIONS AND METHODS” (Nektar Therapeutics, priority 2017, published 2024).)
